# According to the RNAGym collection of RNA variant scans (doi:10.1093/molbev/msab373):
# B1: Azoarcus group I ribozyme (parent)
# chain: GUGCCUUGCGCCGGGAAACCACGCAAGGGAUGGUGUCAAAUUCGGCGAAACCUAAGCGCCCGCCCGGGCGUAUGGCAACGCCGAGCCAAGCUUCGGCGCCUGCGCCGAUGAAGGUGUAGAGACUAGACGGCACCCACCUAAGGCAAACGCUAUGGUGAAGGCAUAGUCCAGGGAGUGGCGAAAGUCACACAAACCGG
# Variants of: B1
# Assay: reverse-splicing fitness (ratio to wild type); higher = more active; in vitro selection; Mg2+ level not given
# Method in brief: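 An in vitro group I ribozyme library with randomized positions was T7-transcribed and gel-purified. In triplicate, 10 pmol RNA in EPPS pH 7.5 was reacted with 50 pmoles of a 30-nt RNA substrate for 1 h at 37 °C across several added MgCl2 levels (1–48 mM), then stopped with EDTA. Products were reverse transcribed from a substrate-complementary primer, PCR-amplified and sequenced (HiSeq 4000). Fitness is a variant's read proportion after selection over that before, normalised to wild type.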
row,Variant,reverse-splicing fitness
1,GUGCCUUGCGCCGGGAAACCACGCAAGGGAUGGUGUCAAAUUCGGCGAAACCUAAGCGCCCGCCCGGGCGUAUGGCAACGCAGAGCCAAGCUUCGGCGCCUGCGCCGAUGCAGGUGUAGAGACUAGACGGCACCCACCUAAGGCCAACGGUAUGGUGAAGGCAUAGUCCAGGGAGUGGCGAAAGUCACACAAACCGG [C82A A111C A145C C150G],0.0226
2,GUGCCUUGCGCCGGGAAACCACGCAAGGGAUGGUGUCAAAUUCGGCGAAACCUAAGCGCCCGCCCGGGCGUAUGGCAACGCAGAGCCAAGCUUCGGCGCCUGCGCCGAUGCAGGUGUAGAGACUAGACGGCACCCACCUAAGGCCAACGAUAUGGUGAAGGCAUAGUCCAGGGAGUGGCGAAAGUCACACAAACCGG [C82A A111C A145C C150A],0.0144
3,GUGCCUUGCGCCGGGAAACCACGCAAGGGAUGGUGUCAAAUUCGGCGAAACCUAAGCGCCCGCCCGGGCGUAUGGCAACGCAGAGCCAAGCUUCGGCGCCUGCGCCGAUGCAGGUGUAGAGACUAGACGGCACCCACCUAAGGCCAACGCUAUGGUGAAGGCAUAGUCCAGGGAGUGGCGAAAGUCACACAAACCGG [C82A A111C A145C],0.212
4,GUGCCUUGCGCCGGGAAACCACGCAAGGGAUGGUGUCAAAUUCGGCGAAACCUAAGCGCCCGCCCGGGCGUAUGGCAACGCAGAGCCAAGCUUCGGCGCCUGCGCCGAUGCAGGUGUAGAGACUAGACGGCACCCACCUAAGGCCAACGAUAUGGUGAAGGCAUAGUCUAGGGAGGGGCGAAAGUCACACAAACCGG [C82A A111C A145C C150A C169U U176G],0.00856
5,GUGCCUUGCGCCGGGAAACCACGCAAGGGAUGGUGUCAAAUUCGGCGAAACCUAAGCGCCCGCCCGGGCGUAUGGCAACGCAGAGCCAAGCUUCGGCGCCUGCGCCGAUGCAGGUGUAGAGACUAGACGGCACCCACCUAAGGCCAACGAUAUGGUGAAGGCAUAGUCUAGGGAGAGGCGAAAGUCACACAAACCGG [C82A A111C A145C C150A C169U U176A],0.0138
6,GUGCCUUGCGCCGGGAAACCACGCAAGGGAUGGUGUCAAAUUCGGCGAAACCUAAGCGCCCGCCCGGGCGUAUGGCAACGCAGAGCCAAGCUUCGGCGCCUGCGCCGAUGCAGGUGUAGAGACUAGACGGCACCCACCUAAGGCCAACGAUAUGGUGAAGGCAUAGUCUAGGGAGCGGCGAAAGUCACACAAACCGG [C82A A111C A145C C150A C169U U176C],0.0109
7,GUGCCUUGCGCCGGGAAACCACGCAAGGGAUGGUGUCAAAUUCGGCGAAACCUAAGCGCCCGCCCGGGCGUAUGGCAACGCAGAGCCAAGCUUCGGCGCCUGCGCCGAUGCAGGUGUAGAGACUAGACGGCACCCACCUAAGGCCAACGAUAUGGUGAAGGCAUAGUCUAGGGAGUGGCGAAAGUCACACAAACCGG [C82A A111C A145C C150A C169U],0.00921
8,GUGCCUUGCGCCGGGAAACCACGCAAGGGAUGGUGUCAAAUUCGGCGAAACCUAAGCGCCCGCCCGGGCGUAUGGCAACGCAGAGCCAAGCUUCGGCGCCUGCGCCGAUGCAGGUGUAGAGACUAGACGGCACCCACCUAAGGCCAACGAUAUGGUGAAGGCAUAGUCGAGGGAGUGGCGAAAGUCACACAAACCGG [C82A A111C A145C C150A C169G],0.0093
9,GUGCCUUGCGCCGGGAAACCACGCAAGGGAUGGUGUCAAAUUCGGCGAAACCUAAGCGCCCGCCCGGGCGUAUGGCAACGCAGAGCCAAGCUUCGGCGCCUGCGCCGAUGCAGGUGUAGAGACUAGACGGCACCCACCUAAGGCCAACGAUAUGGUGAAGGCAUAGUCAAGGGAGUGGCGAAAGUCACACAAACCGG [C82A A111C A145C C150A C169A],0.00835
10,GUGCCUUGCGCCGGGAAACCACGCAAGGGAUGGUGUCAAAUUCGGCGAAACCUAAGCGCCCGCCCGGGCGUAUGGCAACGCAGAGCCAAGCUUCGGCGCCUGCGCCGAUGCAGGUGUAGUGACUAGACGGCACCCACCUAAGGCAAACGCUAUGGUGAAGGCAUAGUCUAGGGAGUGGCGAAAGUCACACAAACCGG [C82A A111C A120U C169U],0.00555
11,GUGCCUUGCGCCGGGAAACCACGCAAGGGAUGGUGUCAAAUUCGGCGAAACCUAAGCGCCCGCCCGGGCGUAUGGCAACGCAGAGCCAAGCUUCGGCGCCUGCGCCGAUGCAGGUGUAGUGACUAGACGGCACCCACCUAAGGCAAACGCUAUGGUGAAGGCAUAGUCGAGGGAGUGGCGAAAGUCACACAAACCGG [C82A A111C A120U C169G],0.00388
12,GUGCCUUGCGCCGGGAAACCACGCAAGGGAUGGUGUCAAAUUCGGCGAAACCUAAGCGCCCGCCCGGGCGUAUGGCAACGCAGAGCCAAGCUUCGGCGCCUGCGCCGAUGCAGGUGUAGAGACUAGACGGCACCCACCUAAGGCCAACGAUAUGGUGAAGGCAUAGUCGAGGGAGCGGCGAAAGUCACACAAACCGG [C82A A111C A145C C150A C169G U176C],0.0219
13,GUGCCUUGCGCCGGGAAACCACGCAAGGGAUGGUGUCAAAUUCGGCGAAACCUAAGCGCCCGCCCGGGCGUAUGGCAACGCAGAGCCAAGCUUCGGCGCCUGCGCCGAUGCAGGUGUAGAGACUAGACGGCACCCACCUAAGGCCAACGAUAUGGUGAAGGCAUAGUCGAGGGAGGGGCGAAAGUCACACAAACCGG [C82A A111C A145C C150A C169G U176G],0.00943
14,GUGCCUUGCGCCGGGAAACCACGCAAGGGAUGGUGUCAAAUUCGGCGAAACCUAAGCGCCCGCCCGGGCGUAUGGCAACGCAGAGCCAAGCUUCGGCGCCUGCGCCGAUGCAGGUGUAGAGACUAGACGGCACCCACCUAAGGCCAACGAUAUGGUGAAGGCAUAGUCGAGGGAGAGGCGAAAGUCACACAAACCGG [C82A A111C A145C C150A C169G U176A],0.0264
15,GUGCCUUGCGCCGGGAAACCACGCAAGGGAUGGUGUCAAAUUCGGCGAAACCUAAGCGCCCGCCCGGGCGUAUGGCAACGCAGAGCCAAGCUUCGGCGCCUGCGCCGAUGCAGGUGUAGAGACUAGACGGCACCCACCUAAGGCCAACGAUAUGGUGAAGGCAUAGUCCAGGGAGCGGCGAAAGUCACACAAACCGG [C82A A111C A145C C150A U176C],0.0176
